# Patent US20170174769A1 (Regeneron, published 2017)
# Where a chain is given by its changes, count along the chain named. Names may count otherwise.
# T1: extracellular domain of human KLB expressed with C-terminal HA and hexahistidine tags (human, UniProt Q86Z14 1-996)
# T1 construct: also called hKLB-HA-6His; hKLB-HA-6his
# T1 sequence: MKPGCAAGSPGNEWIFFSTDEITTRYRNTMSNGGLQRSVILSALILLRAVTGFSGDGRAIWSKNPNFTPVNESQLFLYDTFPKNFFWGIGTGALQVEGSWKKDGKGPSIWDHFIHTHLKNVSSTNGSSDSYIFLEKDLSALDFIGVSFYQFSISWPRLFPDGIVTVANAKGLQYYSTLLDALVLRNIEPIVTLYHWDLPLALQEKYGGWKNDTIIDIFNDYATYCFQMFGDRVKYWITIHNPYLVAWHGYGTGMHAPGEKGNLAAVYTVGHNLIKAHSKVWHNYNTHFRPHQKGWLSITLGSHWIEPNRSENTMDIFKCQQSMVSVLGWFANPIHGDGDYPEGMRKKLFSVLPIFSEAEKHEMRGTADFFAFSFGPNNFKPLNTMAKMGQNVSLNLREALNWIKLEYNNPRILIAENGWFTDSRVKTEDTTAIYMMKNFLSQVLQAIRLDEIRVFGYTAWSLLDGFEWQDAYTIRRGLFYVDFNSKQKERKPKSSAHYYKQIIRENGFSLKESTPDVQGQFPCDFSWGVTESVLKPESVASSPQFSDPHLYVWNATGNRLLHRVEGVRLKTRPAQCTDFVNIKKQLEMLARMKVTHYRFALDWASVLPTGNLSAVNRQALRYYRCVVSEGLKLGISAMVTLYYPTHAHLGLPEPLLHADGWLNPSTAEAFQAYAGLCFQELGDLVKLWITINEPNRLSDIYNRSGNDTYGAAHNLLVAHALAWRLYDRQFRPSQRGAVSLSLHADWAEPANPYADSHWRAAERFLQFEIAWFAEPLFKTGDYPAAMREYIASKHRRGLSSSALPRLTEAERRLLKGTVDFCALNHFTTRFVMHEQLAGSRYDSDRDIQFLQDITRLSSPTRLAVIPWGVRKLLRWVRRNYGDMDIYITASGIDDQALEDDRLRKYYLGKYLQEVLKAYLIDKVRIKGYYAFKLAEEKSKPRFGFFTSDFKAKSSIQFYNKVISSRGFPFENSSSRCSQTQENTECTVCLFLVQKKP
# T2: extracellular domain of human FGFR1c expressed with C-terminal V5 and hexahistidine tags (human, UniProt P11362 22-376)
# T2 construct: also called hFGFR1c-V5-6His
# T2 sequence: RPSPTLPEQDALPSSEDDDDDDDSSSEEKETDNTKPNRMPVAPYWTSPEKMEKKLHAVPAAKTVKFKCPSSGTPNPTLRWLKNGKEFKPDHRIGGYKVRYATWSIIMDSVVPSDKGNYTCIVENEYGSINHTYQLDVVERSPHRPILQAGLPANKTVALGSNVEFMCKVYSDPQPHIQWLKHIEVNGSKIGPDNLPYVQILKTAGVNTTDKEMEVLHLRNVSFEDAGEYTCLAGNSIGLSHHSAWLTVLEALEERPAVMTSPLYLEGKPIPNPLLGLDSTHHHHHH
# B1: H2aM8091N (antibody, V domains shown)
# VH: QVQLVQSGADMKKPGASVKVSCKASGYTFTTYGINWVRQAPGQGLEWMGWISAYSGITNYAQSFQGRVTMTTDTSTSTAYMELRSLRSDDTAVYYCARGGYNWATGDYFDYWGQGTLVTVSS
# VL: DIQMTQSPSTLSASIGDRVTITCRASQSISSWLAWYQQKPGKAPKFLIYKASSLASGVPSRFSGSGSGTEFTLTISSLQPDDFATYYCQQYDSYSPYTFGQGTKVEIK
# notes: mouse IgG2 Fc (H2aM prefix); also called H2M8091N
# B2: H2aM8092N (antibody, V domains shown)
# VH: QVQLQESGPGLVKPSETLSLTCTVSGGSISSYYWSWIRQPPGKGLDWIGHIYYSGTTYYNPSLKSRVSISLDTSKNQFSLKLSSVTAADTAVYYCARHLRGYSSGREFDYWGQGTLVTVSS
# VL: DIQMTQSPSSLSASVGGRVSLTCRASQSIFSYLNWYQQKPGKAPKLLIYAASNLQSGVPSRFSGSGSGTDFTLTISSLQPEDFATYSCQQSYNIPYTFGQGTKLEIK
# notes: mouse IgG2 Fc (H2aM prefix); also called H2M8092N
# B3: H2aM8093N (antibody, V domains shown)
# VH: QVQLVQSGAEVKRPGSSVKVSCKASGDTFSTYAISWVRQAPGQGLEWMGGIIPVFGTTNYAQKFQDRVTITTDESTRTAYMELSSLRSEDTAVYYCAGIAGPDYWGQGTLVTVSS
# VL: DIQMTQSPSSLSASVGDRVTITCRASQGIRNYLAWFQQKPGKAPKSLIYLATSLQSGVPSKFSGSGSGTDFTLTISSLQPEDFATYYCQQYYSYPWTFGQGTKVEIK
# notes: mouse IgG2 Fc (H2aM prefix)
# B4: H2aM8832N (antibody, V domains shown)
# VH: QVQLVESGGGVVQPGRSLRLSCAASGFTFSRYGMHWVRQAPGKGLEWVAVIWYDGTNKYYEDSLKGRFTISRDNSKNTLYLQMNSLRAEDSAVYYCARDQGKYIDYWGQGTLVTVSS
# VL: AIQMTQSPSSLSASVGDRVTITCRTSQDIRNDLGWYQQKPGKVPNLLIYAASTLQSGVPSRFSGSGSGTDFTLTISSLQPEDFATYYCLQDYNYPFTFGPGTKVDIK
# notes: mouse IgG2 Fc (H2aM prefix)
# B5: H2aM8098N (antibody, V domains shown)
# VH: QLQLQESGPGLVKPSETLSLTCTVSGGSISSSNYYWDWIRQTPEKGLEWIGSIHYSGTSYYNPSLKSRVTISVDTSKNQFSLKLRSVTAADAAVYYCARQTSVYWYFDIWGHGTLVTVST
# VL: EIVLTQSPGTLSLSPGEGATLSCRASQSVRNNYLAWYQQKPGQAPRLLIYGASSRAIGIPDRFSGSGSGTDFTLTISRLEPKDFVVYYCQQYGGSLFTFGPGTKVDIK
# notes: mouse IgG2 Fc (H2aM prefix)
# B6: H1H8900P (antibody, V domains shown)
# VH: QVQLVESGGGVVQPGRSLRLSCVASGFTFSSYGMHWVRQAPGKGLEWVAVISFDGSNKYYADSVKGRFTISRDNSKNTLYLQMNSLRPADTAVYYCAKDRSNYYYFGMDVWGQGTTVTVSS
# VL: DIVMTQTPLSLPVTPGEPASISCRSSQSLLDSDDGNTYLDWYLQKPGQSPQLLIYTLSYRASGVPDRFSGSGSGTDFTLKISRVEAEDVGVYYCMQRIEFPLTFGGGTKVEIK
# notes: H1H Fc prefix (human Fc)
# B7: H4H8859P (antibody, V domains shown)
# VH: EVQLVESGGSVVRPGGSLRLSCAASGFTFDVYGMSWVRQAPGKGLEWVSGINWIGGSTGYADSVKGRFTISRDNAKNSLYLQMNSLRAEDTALYYCTREEDYWGQGTLVTVSS
# VL: DVVMTQSPLSLAVTLGQPASISCRSSQSLVYSDGNTYLNWFQQRPGQSPRRLFYKVSNRDSGVPDRFSGSGSGTDFTLKISRVEAEDVGIYYCMQGIKWPLTFGGGTKVEIK
# notes: human IgG4 Fc (H4H prefix)
# B8: H4H8870P (antibody, V domains shown)
# VH: B7 VH with S10G, T28K, A40L, N52S, I54T, T58S, A75G, N77K
# VL: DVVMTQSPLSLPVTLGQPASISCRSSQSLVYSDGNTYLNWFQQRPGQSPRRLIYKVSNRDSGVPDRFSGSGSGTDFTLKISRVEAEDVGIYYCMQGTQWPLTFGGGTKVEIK
# notes: human IgG4 Fc (H4H prefix)
# B9: H1H8899P (antibody, V domains shown)
# VH: EVQLVESGGGLVQPGGSLRLSCAASGFTFSSHWMSWVRQAPGKGLEWVANIKQDGSEKYYVDSVKGRFTISRDNAKNSLYLQISSLRAEDTAVYYCASNWNFLFDFWGQGTLVTVSS
# VL: not shown
# Biological target: T1, extracellular domain of human KLB …
# Assay: SPR, mAb captured, 37 C
# Procedure: (§1) Equilibrium dissociation constants (KD values) for human KLB or human FGFR1c binding to purified anti-KLB/FGFR1c monoclonal antibodies were determined using a real-time surface plasmon resonance biosensor using a Biacore T-200 or 4000 instrument. The Biacore sensor surface was derivatized by amine coupling with either a polyclonal rabbit anti-mouse antibody (GE, # BR-1008-38) or with a monoclonal mouse anti-human Fc antibody (GE, # BR-1008-39) to capture anti-KLB/FGFR1c monoclonal antibodies expressed with either a mouse Fc or a human Fc, respectively. All Biacore binding studies were performed in a buffer composed of 0.01M HEPES pH 7.4, 0.15M NaCl, 3mM EDTA, 0.05% v/v Surfactant P20 (HBST running buffer). […] Association of hKLB-HA-6His or hFGFR1c-V5-6His to the captured monoclonal antibody was monitored for 3.5 to 4 minutes and the dissociation of hKLB-HA-6His or hFGFR1c-V5-6His in HBST running buffer was monitored for 8-12 minutes. All the binding kinetics experiments were performed at 25° C. or 37° C. Kinetic association (kₐ) and dissociation (kd) rate constants were determined by fitting the real-time sensorgrams to a 1:1 binding model using Scrubber 2.0c curve fitting software. Binding dissociation equilibrium constants (KD) and dissociative half-lives (t½) were calculated from the kinetic rate constants as: […]
Binder,20 nM hKLB-HA-6His Bind (RU),Kd [nM],koff [s⁻¹],kon [M⁻¹ s⁻¹],t1/2 [min]
B1,-2.3,–,–,–,–
B2,93.6,0.412,8e-05,194000,144
B3,211,0.222,0.00018,812000,64.1
B4,-0.7,–,–,–,–
B5,3.9,–,–,–,–
B6,2.6,–,–,–,–
B7,0.8,–,–,–,–
B8,-0.8,–,–,–,–
B9,-0.1,–,–,–,–

# Biological target: T2, extracellular domain of human FGFR1c …
# Assay: SPR, mAb captured, 37 C
# Procedure: as §1
Binder,180 nM hFGFR1c-V5-6His Bind (RU),Kd [nM],koff [s⁻¹],kon [M⁻¹ s⁻¹],t1/2 [min]
B1,-1.3,–,–,–,–
B2,0.5,–,–,–,–
B3,0.6,–,–,–,–
B4,2.3,–,–,–,–
B5,-1.4,–,–,–,–
B6,1.6,–,–,–,–
B7,6.8,497,0.0382,76800,0.3
B8,10.6,301,0.0795,264000,0.1
B9,2.8,–,–,–,–

# Biological target: M. fascicularis KLB and human FGFR1c co-expressed on HEK293/MfKLB/hFGFR1c/SRE-Luc cells (M. fascicularis; human, UniProt A0A2K5WB58 1-1044)
# Sequence (chain, as listed by the source, chain 1 of 2): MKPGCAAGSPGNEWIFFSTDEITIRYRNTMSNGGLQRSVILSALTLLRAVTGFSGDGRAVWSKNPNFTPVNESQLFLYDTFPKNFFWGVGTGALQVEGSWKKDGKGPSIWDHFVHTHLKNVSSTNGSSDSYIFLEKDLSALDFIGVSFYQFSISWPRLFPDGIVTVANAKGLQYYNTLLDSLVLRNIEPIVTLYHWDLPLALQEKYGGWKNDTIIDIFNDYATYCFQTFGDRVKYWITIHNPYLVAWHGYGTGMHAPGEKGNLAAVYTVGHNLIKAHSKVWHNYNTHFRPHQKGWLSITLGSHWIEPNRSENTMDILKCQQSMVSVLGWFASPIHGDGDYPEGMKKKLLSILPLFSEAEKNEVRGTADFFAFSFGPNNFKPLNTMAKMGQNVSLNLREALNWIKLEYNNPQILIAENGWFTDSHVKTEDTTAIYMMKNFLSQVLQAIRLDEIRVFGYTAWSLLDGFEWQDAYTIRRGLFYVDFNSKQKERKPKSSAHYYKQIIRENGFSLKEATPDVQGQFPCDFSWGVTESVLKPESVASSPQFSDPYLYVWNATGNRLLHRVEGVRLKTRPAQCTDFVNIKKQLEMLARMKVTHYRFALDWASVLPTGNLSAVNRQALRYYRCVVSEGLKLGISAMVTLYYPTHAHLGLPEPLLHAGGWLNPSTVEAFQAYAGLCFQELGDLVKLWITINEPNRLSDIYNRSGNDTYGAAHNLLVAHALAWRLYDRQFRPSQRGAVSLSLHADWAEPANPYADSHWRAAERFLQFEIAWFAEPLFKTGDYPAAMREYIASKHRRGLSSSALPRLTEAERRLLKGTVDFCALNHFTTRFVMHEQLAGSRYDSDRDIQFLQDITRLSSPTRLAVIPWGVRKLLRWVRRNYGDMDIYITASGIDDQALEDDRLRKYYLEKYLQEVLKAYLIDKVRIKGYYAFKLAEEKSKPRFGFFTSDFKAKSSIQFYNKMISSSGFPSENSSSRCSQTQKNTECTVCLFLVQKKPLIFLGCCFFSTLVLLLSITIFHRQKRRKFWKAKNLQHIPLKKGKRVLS
# Sequence (chain, as listed by the source, chain 2 of 2): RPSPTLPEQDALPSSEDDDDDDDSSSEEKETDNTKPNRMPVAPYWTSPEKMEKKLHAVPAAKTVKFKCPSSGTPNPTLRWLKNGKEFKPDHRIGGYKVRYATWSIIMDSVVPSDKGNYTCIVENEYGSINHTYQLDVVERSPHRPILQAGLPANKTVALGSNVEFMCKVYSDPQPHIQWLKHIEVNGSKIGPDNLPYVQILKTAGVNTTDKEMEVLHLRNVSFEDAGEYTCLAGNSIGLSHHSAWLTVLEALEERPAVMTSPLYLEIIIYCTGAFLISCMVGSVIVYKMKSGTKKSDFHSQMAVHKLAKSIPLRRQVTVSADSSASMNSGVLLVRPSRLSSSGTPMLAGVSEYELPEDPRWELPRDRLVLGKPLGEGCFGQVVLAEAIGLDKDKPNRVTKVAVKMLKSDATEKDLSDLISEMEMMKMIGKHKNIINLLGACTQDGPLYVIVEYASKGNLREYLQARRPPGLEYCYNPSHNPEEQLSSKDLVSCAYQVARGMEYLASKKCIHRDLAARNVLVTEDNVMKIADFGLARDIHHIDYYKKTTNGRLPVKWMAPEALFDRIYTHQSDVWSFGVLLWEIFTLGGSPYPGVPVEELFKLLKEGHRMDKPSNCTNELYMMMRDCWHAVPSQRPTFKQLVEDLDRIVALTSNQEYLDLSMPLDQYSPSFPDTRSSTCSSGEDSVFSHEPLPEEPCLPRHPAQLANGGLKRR
# Assay: cell-based or functional assay
Binder,"IC50, inhibition of 10 nM mfFGF21 [nM]",Maximum Inhibition (%) of 10 nM mfFGF21 [%]
B1,2.3,104
B2,0.22,18
B3,0.026,46
B4,0.11,15

# Biological target: T1, extracellular domain of human KLB …
# Assay: SPR, mAb captured, 25 C
# Procedure: as §1
Binder,20 nM hKLB-HA-6His Bind (RU),Kd [nM],koff [s⁻¹],kon [M⁻¹ s⁻¹],t1/2 [min],binding result
B1,-2,–,–,–,–,–
B2,64.1,0.383,5.56e-05,145000,208,–
B3,147,0.218,9.8e-05,449000,118,–
B4,-0.2,–,–,–,–,–
B5,2.7,–,–,–,–,–
B6,0.3,–,–,–,–,no binding (tested: 60 nM)
B7,-0.8,–,–,–,–,–
B8,-0.6,–,–,–,–,–
B9,0.5,–,–,–,–,–

# Biological target: T2, extracellular domain of human FGFR1c …
# Assay: SPR, mAb captured, 25 C
# Procedure: as §1
Binder,180 nM hFGFR1c-V5-6His Bind (RU),binding result,Kd [nM],koff [s⁻¹],kon [M⁻¹ s⁻¹],t1/2 [min]
B1,-0.8,–,–,–,–,–
B2,-1.3,–,–,–,–,–
B3,-1.2,–,–,–,–,–
B4,5.8,–,–,–,–,–
B5,-0.9,–,–,–,–,–
B6,1.3,no binding (tested: 180 nM),–,–,–,–
B7,4.9,–,352,0.0536,152000,0.22
B8,6.9,–,197,0.0432,219000,0.27
B9,2.4,no binding (tested: 180 nM),–,–,–,–

# Biological target: human KLB and human FGFR1c co-expressed on HEK293/hKLB/hFGFR1c/SRE-luc cells (human, UniProt Q86Z14 1-1044; P11362 22-822)
# Assay: cell-based or functional assay
Binder,"IC50, inhibition of 1 nM hFGF21 [nM]",Maximum Inhibition (%) of 1 nM hFGF21 [%]
B1,1.5,106
B2,0.12,50
B3,0.067,65
B5,15,62
B6,4.5,41
B9,0.04,20
